Measurements taken from patent US11926678B2, “Composite polypeptide having a metal binding motif and molecular construct comprising the same” (Immunwork Inc., priority 2020, dated 2024).

Assays:
[1] = target: T1, human CD19 on human B lymphoma cell line Raji (Homo sapiens, UniProt P15391); assay: Cell staining (FACS) binding to CD19-expressing Raji cells; assay type: cell-based; conditions: 0.001 μg/ml, on ice 30 minutes
T1 construct: incubating 1×10^6 CD19-expressing Raji cells with 0.001 μg/ml of each construct; endogenous in cells; host or cells: Raji (human B lymphoma cell line)
T1 sequence (P15391 20-556): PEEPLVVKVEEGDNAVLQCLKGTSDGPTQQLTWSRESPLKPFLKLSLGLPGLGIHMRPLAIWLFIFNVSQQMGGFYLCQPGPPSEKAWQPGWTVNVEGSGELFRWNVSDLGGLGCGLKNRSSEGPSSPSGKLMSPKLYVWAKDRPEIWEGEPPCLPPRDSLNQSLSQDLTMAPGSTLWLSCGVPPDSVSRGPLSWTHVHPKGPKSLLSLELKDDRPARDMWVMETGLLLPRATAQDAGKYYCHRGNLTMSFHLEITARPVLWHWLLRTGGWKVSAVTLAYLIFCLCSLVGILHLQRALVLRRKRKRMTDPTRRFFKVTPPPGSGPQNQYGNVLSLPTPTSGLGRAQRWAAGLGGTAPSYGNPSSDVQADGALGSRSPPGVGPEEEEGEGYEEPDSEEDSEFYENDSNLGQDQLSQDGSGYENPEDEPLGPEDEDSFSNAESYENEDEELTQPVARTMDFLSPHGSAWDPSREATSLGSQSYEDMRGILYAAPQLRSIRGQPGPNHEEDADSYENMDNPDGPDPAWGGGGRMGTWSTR
Description: (§1) Two stabilized molecular constructs, (scFv α CD19)-Fc-MBM-1×2 DOTA bundles and (scFv α CD19)-Fc-MBM-3×2 DOTA bundles, were analyzed for their ability to bind to human CD19 on human B lymphoma cell line Raji. The assay was performed by incubating 1×10^6 CD19-expressing Raji cells with 0.001 μg/ml of each construct in PBS, 1% BSA on ice for 30 minutes, using anti-CD19 antibody (RB4v1.2), (scFv α CD19)-Fc-MBM-1×2 DOTA bundles and (scFv α CD19)-Fc-MBM-3×2 DOTA bundles as positive controls. The anti-HER2 antibody (trastuzumab) was used as a negative control. The staining of cells was analyzed by FACS (FACSCanto II; BD Biosciences) using FITC-conjugated goat anti-human IgG.Fc (diluted 1:200 in PBS/BSA) (Caltag, Buckingham, UK) at 4° C. for 20 minutes in the dark.

[2] = target: T2, human CD19 on human B lymphoma cell lines Ramos (Homo sapiens, UniProt P15391); assay: Cell staining (FACS) binding to CD19-expressing Ramos cells; assay type: cell-based
T2 construct: two molecular constructs containing MBM-1 and MBM-3 on CD19-expressing Ramos cells; endogenous in cells; host or cells: Ramos (human B lymphoma cell line)
T2 sequence (P15391 20-556): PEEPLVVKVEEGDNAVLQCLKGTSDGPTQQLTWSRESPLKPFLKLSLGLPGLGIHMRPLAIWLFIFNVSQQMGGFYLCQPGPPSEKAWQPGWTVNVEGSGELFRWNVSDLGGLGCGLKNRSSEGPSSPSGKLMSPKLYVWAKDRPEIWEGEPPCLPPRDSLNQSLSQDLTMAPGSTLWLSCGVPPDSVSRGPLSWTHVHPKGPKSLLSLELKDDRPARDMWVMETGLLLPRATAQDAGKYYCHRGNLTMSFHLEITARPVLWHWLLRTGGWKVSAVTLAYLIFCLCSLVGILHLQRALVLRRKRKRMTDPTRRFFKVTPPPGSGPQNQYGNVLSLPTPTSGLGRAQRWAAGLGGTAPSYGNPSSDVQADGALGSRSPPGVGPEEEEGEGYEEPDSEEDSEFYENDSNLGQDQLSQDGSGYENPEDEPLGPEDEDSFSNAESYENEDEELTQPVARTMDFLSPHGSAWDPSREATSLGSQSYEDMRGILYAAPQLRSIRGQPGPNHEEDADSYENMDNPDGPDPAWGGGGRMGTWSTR
Description: as §1
These molecular constructs were also analyzed for their ability to bind to human CD19 on human B lymphoma cell lines Ramos. The assay was performed using the protocol similar to the one used in cell binding assay with Raji cells. The staining of Ramos cells was analyzed by FACS (FACSCanto II; BD Biosciences) using FITC-conjugated goat anti-human IgG.Fc, where anti-CD19 IgG is used as a positive control. The anti-HER2 antibody (trastuzumab) was used as a negative control. […]

[3] = Stability with glutathione or human serum albumin, SDS-PAGE; assay type: in vitro ADME; conditions: 37° C., 30 days
Description: To evaluate the stability of the stabilized 2-chain (scFv α CD19)-Fc-MBM-1×2 DOTA bundles, the molecular constructs were placed in Tris buffer (100 mM Tris buffer at pH 7.3, 50 mM Bis-Tris buffer, and 290 mM NaCl) with glutathione or human serum albumin, and then incubated at 37° C. for 30 days.

[4] = Examination of retro-Michael addition product, Western blot; assay type: in vitro ADME; conditions: 37° C., 30 days, compared with stock at 4° C.
Description: A further confirmation of the stability of the 2-chain (scFv α CD19)-Fc-MBM-1×2 DOTA bundles, the stabilized molecular construct was incubated with glutathione or HSA and then analyzed using Western blot.
For the western blot analysis of the stabilized samples, briefly, the samples were separated on 8% SDS-PAGE gels and transferred to a poly(vinylidene fluoride) (PVDF) membrane (Millipore). The membrane blots were blocked in PBS containing 5% BSA and 0.05% Tween 20 for 1 hour at room temperature. After washing 3 times with phosphate buffered saline tween-20 (PBST) containing PBS and 0.05% Tween-20, the blots were incubated with goat anti-human IgG.Fc antibody conjugated with horseradish peroxidase (Millipore). Then the membranes were washed 3 times with PBST, and immunoreacted bands were detected using ECL™ western blotting detection reagents (Millipore) and exposed on Fujifilm (Tokyo, Japan).

[5] = Half-life in BALB/c mice after i.v. administration (serum ELISA); assay type: in vivo; conditions: about 200 μL of 3.33 μM protein
Description: The measurement of half-lives of the stabilized 2-chain (scFv α CD19)-Fc-MBM-1×2 DOTA bundles was carried out in mice after i.v. administration. The (scFv α CD19)-Fc-MBM-1×2 DOTA bundles in the serum sample was observed using ELISA. 8 to 10-week-old BALB/c mice were purchased from BioLasco, Taipei, Taiwan. Mice were grouped into three mice per group, and were injected intravenously with about 200 μL of 3.33 μM protein.

[6] = test system: CD19-expressing tumors (Raji xenograft); assay: IVIS imaging of targeting to CD19-expressing xenograft tumor; assay type: in vivo, NOD-SCID mice
Source text: In this Example, in vivo imaging system (IVIS) was used to investigate the targeting effect of the stabilized 2-chain (scFv α CD19)-Fc-MBM-1×2 DOTA bundles to CD19-expressing tumors in mouse xenograft model. Prior to IVIS imaging, a Dylight 680 Antibody Labeling Kit (Thermo Scientific) was used to conjugate the stabilized 2-chain (scFv α CD19)-Fc-MBM-1×2 DOTA bundles from Example 19 and the anti-CD19 antibody (RB4v1.2), according to the manufacturer's instructions.
8 to 10-week-old NOD-SCID (NOD.CB17-Prkdc^scid/JNarl) were purchased from Laboratory Animal Facility of Institute of Cellular and Organismic Biology, Academia Sinica, Taipei, Taiwan. The mice were injected intraperitoneally with 1×10^7 B-cell lymphoma Raji cells per mouse 2 weeks before the treatment. The mice were grouped into three mice per group, and were injected intravenously with about 200 μL of 6.65 μM labeled molecule. At various time points, mice were anaesthetized with isoflurane in O2 and placed in the IVIS Spectrum In Vivo Imaging System (PerkinElmer) with a supine position. […] Images were captured at indicated time points using IVIS Spectrum imager and analyzed with Living Image software.
Fluorescent images from NOD-SCID mice were captured and analyzed at 0 hour, 24 hours, 48 hours, and 72 hours after the administration of DyLight 680-conjugated proteins. […]

[7] = test system: CD19-expressing tumors (Raji xenograft); assay: Biodistribution by tissue ELISA in CD19-expressing xenograft tumor model; assay type: in vivo, NOD-SCID mice; conditions: day 7 after i.v. injection
Description: For biodistribution analysis of the stabilized (scFv α CD19)-Fc-MBM-1×2 DOTA bundles in xenograft mouse model, the procedure set forth in Example 32 was used with some modifications.
Briefly, the mice were injected subcutaneously with 1×10^7 B-cell lymphoma Raji cells per mouse 2 to 3 weeks before the treatment. The mice were grouped into three mice per group, and were injected intravenously with about 200 μL of 6.65 μM labeled molecule.
Biodistribution of NOD-SCID mice were analyzed by tissue ELISA at 7 days after the administration of the stabilized 2-chain (scFv α CD19)-Fc-MBM-1×2 DOTA bundles and the anti-CD19 antibody. Briefly, the animals were sacrificed at day 7 after injection. Blood was hemospasia from the heart, and tissue samples from 11 organs were collected. Tissues samples were homogenized using homogenizer and analyzed further for measuring the concentration of the injected molecules by ELISA.

Row | Molecule | binding to Raji cells (cell staining) [1] | binding to Ramos cells (cell staining) [2] | stability while incubated with glutathione or human serum albumin ([3]; SDS-PAGE) | intact molecular construct still in solution without retro-Michael addition product ([3]; HSA-treated group) | intact molecular construct still in solution without retro-Michael addition product ([3]; glutathione-treated group) | stability while incubated with glutathione or HSA [4] | half-life [5] [h] | penetration into tumors compared with normal organ ([6]; 24, 48 and 72 hours after i.v. injection, DyLight 680-labeled) | targeting effect to CD19-expressing tumors ([6]; mouse xenograft model) | targeting of CD19-expressing tumors (tissue-to-blood ratio biodistribution) [7]
1 | stabilized 2-chain (scFv α CD19)-Fc-MBM-1×2 DOTA bundles: 2-chain anti-CD19 scFv-Fc fusion with MBM-1 (ACPGHA), two Mal-Peptide 2-DOTA bundles conjugated, maleimide ring opened (conjugate) EIVLTQSPAIMSASPGERVTMTCSASSGVNYMHWYQQKPGTSPRRWIYDTSKLASGVPARFSGSGSGTDYSLTISSMEPEDAATYYCHQRGSYTFGGGTKLEIKRGSTSGSGKPGSGEGSTKGQVQLVQPGAEVVKPGASVKLSCKTSGYTFTSNWMHWVKQAPGQGLEWIGEIDPSDSYTNYNQNFQGKAKLTVDKSTSTAYMEVSSLRSDDTAVYYCARGSNPYYYAMDYWGQGTSVTVSSGGGASDKTHTCPPCPAPELLGGPSVFLFPPKPKDTLMISRTPEVTCVVVDVSHEDPEVKFNWYVDGVEVHNAKTKPREEQYNSTYRVVSVLTVLHQDWLNGKDYKCKVSNKALPAPIEKTISKAKGQPREPQVYTLPPSRDELTRNQVSLTCLVKGFYPSDIAVEWESNGQPENNYKTTPPVLDSDGSFFLYSKLTVDKSRWQQGNVFSCSVMHEALHNHYTQKSLSLSPGGGGACPGHA | bound to Raji cells substantially positively | bound to Ramos cells substantially positively | satisfactory stability | approximately 90% | approximately 90% | satisfactory stability | ~193.5 | significantly greater | satisfactory targeting effect | can target CD19-expressing tumors
2 | (scFv α CD19)-Fc-MBM-1 fusion protein: scFv specific for human CD19 (from RB4v1.2) fused to IgG1.Fc, GGGG linker and MBM-1 ACPGHA; SEQ ID NO: 13 (protein) EIVLTQSPAIMSASPGERVTMTCSASSGVNYMHWYQQKPGTSPRRWIYDTSKLASGVPARFSGSGSGTDYSLTISSMEPEDAATYYCHQRGSYTFGGGTKLEIKRGSTSGSGKPGSGEGSTKGQVQLVQPGAEVVKPGASVKLSCKTSGYTFTSNWMHWVKQAPGQGLEWIGEIDPSDSYTNYNQNFQGKAKLTVDKSTSTAYMEVSSLRSDDTAVYYCARGSNPYYYAMDYWGQGTSVTVSSGGGASDKTHTCPPCPAPELLGGPSVFLFPPKPKDTLMISRTPEVTCVVVDVSHEDPEVKFNWYVDGVEVHNAKTKPREEQYNSTYRVVSVLTVLHQDWLNGKDYKCKVSNKALPAPIEKTISKAKGQPREPQVYTLPPSRDELTRNQVSLTCLVKGFYPSDIAVEWESNGQPENNYKTTPPVLDSDGSFFLYSKLTVDKSRWQQGNVFSCSVMHEALHNHYTQKSLSLSPGGGGACPGHA |  |  |  |  |  |  | ~179.6 |  |  | 
